Measured values published in publication PMC12229607.

Molecular target: human Fc gamma receptor FcγRIIIa, V158 allotype (human)
Test: ELISA

Chain of human Fc gamma receptor FcγRIIIa, V158 allotype (human) (P08637 17-208): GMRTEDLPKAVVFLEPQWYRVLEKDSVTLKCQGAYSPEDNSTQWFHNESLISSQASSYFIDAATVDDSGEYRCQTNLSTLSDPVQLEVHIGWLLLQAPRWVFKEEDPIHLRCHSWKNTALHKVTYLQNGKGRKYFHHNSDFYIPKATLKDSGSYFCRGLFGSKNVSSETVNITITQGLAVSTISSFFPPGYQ

Substance | EC50 [µM]
G2-hinge-Fc (E. coli-derived human IgG1 hinge-Fc bearing the G2 glycoform) (domain or fragment) | 0.0285
commercial trastuzumab (antibody) | 0.0054
